Assay results published in paper PMC3688593, “Cytokine Receptor-Like Factor 1 (CRLF1) Protects against 6-Hydroxydopamine Toxicity Independent of the gp130/JAK Signaling Pathway” (PLoS ONE, 2013).

Target: the molecule itself
Experiment: non-reducing versus reducing SDS-PAGE with immunoblot; proteins precipitated from conditioned media of stable SH-SY5Y lines; about 110 kDa band on non-reducing gels, 55 kDa CRLF1 band on reducing gels; blots for CRLF1 and CLCF1

B1: cytokine receptor-like factor 1 (CRLF1), full-length, untagged (natural protein, UniProt O75462 38-422, looked up)
chain: AHTAVISPQDPTLLIGSSLLATCSVHGDPPGATAEGLYWTLNGRRLPPELSRVLNASTLALALANLNGSRQRSGDNLVCHARDGSILAGSCLYVGLPPEKPVNISCWSKNMKDLTCRWTPGAHGETFLHTNYSLKYKLRWYGQDNTCEEYHTVGPHSCHIPKDLALFTPYEIWVEATNRLGSARSDVLTLDILDVVTTDPPPDVHVSRVGGLEDQLSVRWVSPPALKDFLFQAKYQIRYRVEDSVDWKVVDDVSNQTSCRLAGLKPGTVYFVQVRCNPFGIYGSKKAGIWSEWSHPTAASTPRSERPGPGGGACEPRGGEPSSGPVRRELKQFLGWLKKHAYCSNLSFRLYDQWRAWMQKSHKTRNQDEGILPSGRRGTARGPAR
notes: signal peptide in the construct; cytokine receptor-like factor 1 (CRLF1), untagged full-length open reading frame in pCDH-EF1-MCS-IRES-neo; detected in the conditioned medium as the secreted protein; The 110 kDa band is lost on reduction, so the dimer appears to be disulfide-linked; also called CRLF1-FL; FL
stoichiometry N: 2
